Assays:
[1] = target: T1, biotinylated extracellular domains of human CD123 with C-terminal Fc tag and Avi tag (bio.hCD123-Fc(kih)-Avi) (human, UniProt P26951 19-303, biotinylated with BirA-GST (Avi tag)); experiment: HTRF, full-length biotinylated hCD123-Fc(kih)-Avi
T1 construct: Bought from Evitria; the second Fc chain and the number of CD123 arms are not described; also called biotinylated hCD123; recombinant human CD123 target; not shown: Avi tag
T1 sequence: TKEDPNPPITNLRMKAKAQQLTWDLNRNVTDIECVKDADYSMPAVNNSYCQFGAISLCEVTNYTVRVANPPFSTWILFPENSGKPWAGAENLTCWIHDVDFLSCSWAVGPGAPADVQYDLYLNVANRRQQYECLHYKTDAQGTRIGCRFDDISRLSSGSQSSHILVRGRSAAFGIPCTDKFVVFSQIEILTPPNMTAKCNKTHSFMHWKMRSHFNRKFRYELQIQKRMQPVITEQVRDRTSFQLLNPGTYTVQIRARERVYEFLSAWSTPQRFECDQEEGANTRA
Excerpt: (§1) The CD123 epitope bound by CD123-specific ankyrin repeat proteins of the invention was investigated using truncated CD123 target protein as well as competition ELISA and HTRF against the benchmark control molecule flotetuzumab-similar (CD3-CD123 specific DART®, purchased from Evitria) and the natural ligand IL-3 (purchased by Peprotech), First, full-length (NTD/D2/D3 domains) and truncated (D2/D3 domains) CD123 targets (purchased from Evitria) were applied in an HTRF binding assay in which they were incubated with DARPin® protein #1 and binding was detected by using either the HTRF reagents Anti 6His-d2 and Streptavidin-Tb for full-length CD123 or hIgG-d2 and anti-His-Tb for truncated CD123. […] The excitation of the reaction was measured at 340 nm and emission at 665 nm and the background at 340 nM and 620 nM respectively. […] Binding was detected by using either the HTRF reagents Anti 6His-d2 and Streptavidin-Tb for full-length CD123 or hIgG-d2 and anti-His-Tb for truncated CD123 target.

[2] = target: T2, truncated CD123 target (D2/D3 domains), D2-D3-hCD123 (human, UniProt P26951 101-305); experiment: HTRF, purified DARPin protein with truncated D2-D3-hCD123, hIgG-d2 and anti-His-Tb
T2 construct: domain: D2/D3; Bought from Evitria; Detected with hIgG-d2, so it probably carries an Fc tag; also called truncated target (D2-D3-hCD123)
T2 sequence (looked up): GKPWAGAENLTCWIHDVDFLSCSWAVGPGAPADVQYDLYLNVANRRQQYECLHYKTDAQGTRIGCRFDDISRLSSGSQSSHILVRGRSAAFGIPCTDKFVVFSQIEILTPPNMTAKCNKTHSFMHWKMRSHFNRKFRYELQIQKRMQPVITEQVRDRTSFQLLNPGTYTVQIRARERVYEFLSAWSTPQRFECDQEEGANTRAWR
Excerpt: as §1

B1: DARPin® protein #20 (non-binding DARPin molecule) (designed binder)
chain: DLGKKLLEAARAGQDDEVRELLKAGADVNAKDKDGYTPLHLAAREGHLEIVEVLLKAGADVNAKDKDGYTPLHLAAREGHLEIVEVLLKAGADVNAQDKSGKTPADLAADAGHEDIAEVLQKAA
notes: Control
[1]
  binding result: no binding
[2]
  binding result: no binding

— patent US20240150475A1 (Molecular Partners, published 2024)
